T1: SARS-CoV-2 N protein peptide on HLA-A*11:01 (human)
T1 peptide: QQQQGQTVTK

T2: SARS-CoV-2 N protein peptide on HLA-A*11:01 (human)
T2 peptide: ATEGALNTPK

B1: TCR-03 (TCR)
alpha TRAV38-2/DV8 TRAJ30 CDR3: CAYRSVPLNRDDKIIF
beta TRBV19 TRBJ1-5 CDR3: CASSKSGTGYQPQHF
B2: TCR-18 (TCR)
alpha TRAV6 TRAJ45 CDR3: CALDGSGGGADGLTF
beta TRBV7-8 TRBJ1-3 CDR3: CASSPGRSGNTIYF
B3: TCR-09 (TCR)
alpha TRAV29/DV5 TRAJ43 CDR3: CAASPEYNNNDMRF
beta TRBV18 TRBJ2-3 CDR3: CASSRTLGTSGNTQYF
B4: TCR-19 (TCR)
alpha TRAV29/DV5 TRAJ30 CDR3: CAAMSMNRDDKIIF
beta TRBV4-1 TRBJ2-1 CDR3: CASSRLPGLAGGTVVNEQFF
B5: TCR-17 (TCR)
alpha TRAV29/DV5 TRAJ30 CDR3: CAARTGDDKIIF
beta TRBV10-3 TRBJ1-5 CDR3: CAINKQGFNQPQHF
B6: TCR-33 (TCR)
alpha TRAV19 TRAJ15 CDR3: CALSEAEAGTALIF
beta TRBV6-2 TRBJ1-2 CDR3: CASSYGSVYGYTF
B7: TCR-37-1 (TCR)
alpha TRAV5 TRAJ5 CDR3: CAESDMDMGRRALTF
beta TRBV7-3 TRBJ2-3 CDR3: CASSRRASGIGTDTQYF
B8: TCR-38-1 (TCR)
alpha TRAV8-6 TRAJ29 CDR3: CAVTTDSGNTPLVF
beta TRBV11-2 TRBJ2-1 CDR3: CASSPAFGEQFF
B9: TCR-10 (TCR)
alpha TRAV29/DV5 TRAJ48 CDR3: CAASDENEKLTF
beta TRBV6-6 TRBJ2-1 CDR3: CASKGGGTSGYEQFF
B10: TCR-08 (TCR)
alpha TRAV19 TRAJ33 CDR3: CALSEAVDSNYQLIW
beta TRBV7-9 TRBJ1-2 CDR3: CASSLRQGPNYGYTF
B11: TCR-24 (TCR)
alpha TRAV29/DV5 TRAJ48 CDR3: CAASEAGGNEKLTF
beta TRBV15 TRBJ1-5 CDR3: CATSREQAGQPQHF
B12: TCR-22 (TCR)
alpha TRAV19 TRAJ49 CDR3: CALSEALNTGNQFYF
beta TRBV3-1 TRBJ1-6 CDR3: CASSQVAYSPLHF
B13: TCR-29-1 (TCR)
alpha TRAV3 TRAJ33 CDR3: CAVRRLMDSNYQLIW
beta TRBV7-6 TRBJ2-1 CDR3: CASSHGTSGSSHEQFF
B14: TCR-20 (TCR)
alpha TRAV13-1 TRAJ47 CDR3: CAAIQEYGNKLVF
beta TRBV5-5 TRBJ2-2 CDR3: CASSPRTLFTGELFF
B15: TCR-23-2 (TCR)
alpha TRAV6 TRAJ21 CDR3: CALWDFNKFYF
beta TRBV27 TRBJ2-5 CDR3: CASSPYSGGQGETQYF
B16: TCR-32 (TCR)
alpha TRAV3 TRAJ8 CDR3: CAVRVYTGFQKLVF
beta TRBV9 TRBJ2-3 CDR3: CASSSNLQGADTQYF
B17: TCR-34-1 (TCR)
alpha TRAV14/DV4 TRAJ6 CDR3: CAMREGSKGSYIPTF
beta TRBV28 TRBJ2-7 CDR3: CASRLNPGTVSYEQYF
B18: TCR-28 (TCR)
alpha TRAV19 TRAJ54 CDR3: CALSEAYQGAQKLVF
beta TRBV9 TRBJ2-5 CDR3: CASSVGGTVQETQYF

The target in one assay is SARS-CoV-2 N protein peptide on HLA-A*11:01 (human). The experiment in a line: activation reporter or marker.
Consider B1, for which the binding result is “recognises”. The same measure, in the same setting: the same measure for B2: “recognises”; for B3: “recognises”.

With B4, the binding result was “recognises”. The same measure, in the same setting: the same measure for B5: “recognises”; for B6: “recognises”; for B7: “recognises”. The same measure, in the same setting: the same measure for B8: “recognises”. Still for that read-out and setting: the same measure for B9: “recognises”; for B10: “recognises”. Regarding B11, the binding result is “recognises”.

B12: the binding result is reported as “recognises”.

Consider B13, for which the binding result is reported as “recognises”. On the same count and under the same terms, the same measure for B14: “recognises”.

The next assay concerns the target T1, SARS-CoV-2 N protein peptide on …. As to the kind of experiment: activation reporter or marker.
With B15, the binding result is “recognises”.

The next assay deals with T2, SARS-CoV-2 N protein peptide on …. As to the kind of experiment: activation reporter or marker.
Consider B16, for which the binding result was “recognises”.

Consider B17, for which the binding result was “recognises”. Turning to B18, the binding result is “recognises”.

The values above are taken from article PMC11535475 (2024).
